Assay [1] concerns CFA-induced thermal hyperalgesia. Description: Hargreaves Model of Hyperalgesia in rats. Format: in vivo, rat. The procedure:
Hargreaves Model of Hyperalgesia in rats. Rats aged 4-6 weeks (weight range, 180-220 g) were used for intraplantar (ipl) administrations of various antibodies and evaluation of their efficacy in the Hargreaves model of inflammatory pain. Chronic inflammatory pain is induced by injecting a low volume (50 μl) of complete Freund's adjuvant (CFA; heat-killed M. tuberculosis—Sigma, St. Louis, Mo.—suspended in oil:saline 2:1 emulsion) into the right hind paw. The paw withdrawal latency in response to the application of a radiant stimulus onto the plantar surface of both right and left paw was measured using the plantar Analgesia Meter equipment for paw stimulation (IITC Life Science, Woodland Hills, Calif.). The time taken by the animal to respond by licking or flicking its paw is interpreted as positive response (paw withdrawal latency). After 48 h of the CFA injection, the baseline for latency paw withdrawal was measured and the mAbs tested. […] A cut-off time (20 sec) is established at the end of which the heat source shuts off automatically to avoid tissue damage. Animals were kept (randomized) one per cage and staff performing pain experiments are blinded to the content of injectable compounds. Percentage of maximum possible effect (% MPE) was calculated using the formula % MPE=(Test Latency−Baseline Latency)×100/(Cut-off−Baseline Latency).

Assay [2] has as its system OD1-evoked Nav1.7-mediated spontaneous pain behaviours. Format: in vivo, mouse. The conditions noted are these: 100 μg, injected 60 minutes prior to OD1; 20 min after the injection.
For a further assay, the system named is 2A3-H4. Description: Surface Plasmon Resonance for VHH antibodies, immobilized irrelevant VHH 2A3-H4. Format: binding. The conditions noted are these: SPR; 25 C. Here is the method: (§1) Surface Plasmon Resonance for VHH antibodies. For SPR experiments, IMAC-purified VHHs DI-D, DI-4, DI-16, DI-28 and DI-48 were passed through a Superdex 75 (GE Healthcare) column for SEC purification in HBS-EP+buffer (10 mM HEPES, pH 7.4, containing 150 mM NaCl, 3 mM EDTA and 0.05% P20), connected to an AKTAPurifier (GE Healthcare) at a flow rate of 1 ml/min. Monomeric VHH fractions were collected and protein concentration determined by measuring A280 measurement. Using a Biacore T200 instrument (GE Healthcare), approximately 500-1000 RUs of FC5DIE3IR, FC5 and an irrelevant VHH (2A3-H4) were immobilized on a CM5 Series S sensor chip (GE Healthcare) at pH 4.0 using standard amine coupling according to the manufacturer's instructions (GE Healthcare). […] Surfaces were regenerated by washing with a 120 s pulse of 10 mM glycine pH 1.5. Data were analyzed with Biacore T200 Software v 3.0 and affinities determined using steady state binding or a 1:1 binding model.

In another assay the target is T1, FC5DIE3IR (Homo sapiens, UniProt Q15858).
T1 construct: The supernatant was collected and loaded on a 5 ml MabSelect™ SuRe™ column; made in house; host or cells: CHO-3E7 (transient, pTT5 vector), purified from supernatant
Description: Surface Plasmon Resonance for VHH antibodies, immobilized FC5DIE3IR. Format: binding. The conditions noted are these: for Kd / Rmax (RU) / ka / kd: immobilized FC5DIE3IR; for ka / kd: 25 C. Here is the method: as §1

The test system of another assay is FC5. Kind of assay: Surface Plasmon Resonance for VHH antibodies, immobilized FC5. The assay is classed as binding. The conditions noted are these: SPR; 25 C. The procedure: as §1
FC5, sequence (as listed by the source): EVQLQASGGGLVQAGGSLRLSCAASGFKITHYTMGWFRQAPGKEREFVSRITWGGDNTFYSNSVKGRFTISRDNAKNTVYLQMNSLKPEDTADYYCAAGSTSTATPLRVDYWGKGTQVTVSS

Where “and” joins values, the source holds several entries; their conditions need not be identical. Identical values can stand only once.

As for `CC(=O)Nc1cccc(Nc2ncnc(N3CCC(OCc4ccc(OC(F)(F)F)cc4)CC3)n2)c1C` [TC-N1752, reference compound], the “Percentage of effect after injection (on left paw withdrawal)” value in assay [1] (100 μg intraplantar, 0 h) turned out to be 0%; in assay [1] (100 μg intraplantar, 1 h), 37.01%; in assay [1] (100 μg intraplantar, 2 h), 44.77%; in assay [1] (100 μg intraplantar, 4 h), 49.05%. In addition, the Latency paw withdrawal in assay [1] (100 μg intraplantar, 1 h) is 8.15 ± 1.6 s and 8.15 ± 2.60 s; in assay [1] (100 μg intraplantar, 2 h), 11.17 ± 1.19 s; in assay [1] (100 μg intraplantar, 4 h), 11.90 ± 0.99 s. Further, in assay [1] (100 μg intraplantar, 4 h (FIG. 27B)), the “Percentage of maximum possible effect (% MPE)” value was 46.47%±7.14. Further, in assay [2], the “Time spent in pain behaviors (saline plus OD1 = 100%)” value is recorded as 51.62%±4.85.
Regarding “TLESEEDFRKYFYYLEGSKDALLCGFSTDS (Peptide #2 = 30 amino acid sequence located on loop3 of the D1 domain of the Nav1.7 polypeptide) [P2]”, the “Latency paw withdrawal time” value in assay [1] (peptide 375 μg co-injected with 3A8 75 μg, intraplantar (FIG. 18)) is 6.76 ± 0.32 s. For the same molecule, the “3A8-induced reversal of hyperalgesia (% MPE)” value in assay [1] (peptide 375 μg co-injected with 3A8 75 μg, intraplantar, 4 h) was 13.49%±2.62.

B1: DI-28: VHH from FC5DIE3IR llama immune library; SEQ ID NO: 54 (protein)
VHH: QAQVQLVESGGGLVQAGGSLRLSCAASGRTFSSSGMGWFRQAPGKDRELVAGISWSGDSAYYANSVAGRFTISRDNINNTVYLQMNSLKPEDTAVYYCAARQGGRNYATSPREYDYWGQGTQVTVSS
modifications: DI-28
By Kd is commonly meant the concentration at which binding is half-saturated. High values mean lower affinity, low ones higher affinity. With B1, the “Binding to immobilized 2A3-H4 (comment, in words)” value (“Binding to immobilized 2A3-H4” for short) with 2A3-H4 was “No binding”. For the same molecule, in the assay with FC5DIE3IR, the Kd came out at 4.4 nM, the “Rmax (RU)” value was determined as 318.3 RU, the “ka” value worked out at 461000 M⁻¹ s⁻¹ and the “kd” value turned out to be 0.00205 s⁻¹. Besides, in the assay on FC5, the “Binding to immobilized FC5 (comment, in words)” value is reported as “No binding”.

B2: DI-16: VHH from FC5DIE3IR llama immune library; SEQ ID NO: 49; clone DI-11 has identical sequence (protein)
VHH: QAQVQLVESGGGLVQAGGSLRLSCAASGRTVSSYTMGWFRQAPGKERRFVATVNSSGRGTHYADSVKGRFTISRDNAKNTVYLQMNSLKPEDTAVYYCAAAPYPDGSLGPGYDYWGQGTQVTVSS
modifications: DI-16
For the molecule B2, the “Binding to immobilized 2A3-H4” value in the assay with 2A3-H4 is on record as “No binding”. In addition, in the assay with FC5DIE3IR, the Kd stood at 4.3 nM, the “Rmax (RU)” value is 317.9 RU, the “ka” value was found to be 619000 M⁻¹ s⁻¹ and the “kd” value is 0.00266 s⁻¹. The “Binding to immobilized FC5 (comment, in words)” value in the assay with FC5 was “No binding”.

B3: DI-4: VHH from FC5DIE3IR llama immune library; SEQ ID NO: 47 (protein)
VHH: QVQLVESGGGLVQPGGSLRLSCAASGFTFSNYWMYWVRQAPGKGLERVSSIYISGGNTYYADSVKGRFTISRDNAKNTLYLQMNSLKSEDTAVYYCVKGDTFGGMDYWGKGTQVTVSS
modifications: DI-4
Turning to B3, in the assay with 2A3-H4, the “Binding to immobilized 2A3-H4” value is given as “Very low non-”. The “Rmax (RU)” value in the assay with FC5DIE3IR turned out to be 469.2 RU. Also, the “Binding to immobilized FC5 (comment, in words)” value in the assay on FC5 is recorded as “No binding”.

B4: DI-48: VHH from FC5DIE3IR llama immune library; SEQ ID NO: 59 (protein)
VHH: QAQVQLVESGGGLVQAGGSLRLSCAASGRTFSTYVMGWFRQTPGKEREFVAGFSWSGDYAIYVNSVKGRFTISRDNAKNTVYLQMNSLRPEDTAVYYCAARQRGGYSGRSYYTGRNDYEYWGQGTQVTVSS
modifications: DI-48
Turning to B4, the “Binding to immobilized 2A3-H4” value in the assay on 2A3-H4 is listed as “Very low”. For the same molecule, in the assay with FC5DIE3IR (SPR), the “Binding to immobilized FC5DIE3IR (comment, in words)” value was “Low affinity,”. Besides, in the assay with FC5, the “Binding to immobilized FC5 (comment, in words)” value was “No binding”.

The values are drawn from patent publication US11945858B2, “Antibodies and antibody fragments against HNAV1.7 channel and their use in pain and cancer indications” (NATIONAL RESEARCH COUNCIL OF CANADA, priority 2018, dated 2024).
